Test results reported in patent US20070065896A1, “Methods and kits for quantifying metabolites or analytes” (priority 2003, published 2007).

Tests used:
[1] = Specific activities of recombinant enzymes towards different substrates (Kredich and Tomkins); type: biochemical
Excerpt: Specific activities (micromol/min/mg protein) towards different substrates
(§1) Assayed according to Kredich and Tomkins (Journal of Biological Chemistry 241, 4955-4965, 1966)

[2] = Kinetic properties of recombinant enzymes; type: biochemical; conditions: ± SD, n in brackets
Excerpt: as §1

[3] = substrate O-succinyl-L-homoserine

B1: PA3107: Recombinant N-terminal His-tagged O-acetyl-L-homoserine thiol lyase from Pseudomonas aeruginosa, encoded by gene PA3107 (MetZ, Genbank AAA83435) (protein, UniProt P55218 1-403, looked up)
O-succinylhomoserine …: MTQDWDAGRLDSDLEGAAFDTLAVRAGQRRTPEGEHGEALFTTSSYVFRTAADAAARFAGEVPGNVYSRYTNPTVRTFEERIAALEGAEQAVATASGMSAILALVMSLCSSGDHVLVSRSVFGSTISLFDKYFKRFGIQVDYPPLSDLAAWEAACKPNTKLFFVESPSNPLAELVDIAALAEIAHAKGALLAVDNCFCTPALQQPLKLGADVVIHSATKYIDGQGRGMGGVVAGRGEQMKEVVGFLRTAGPTLSPFNAWLFLKGLETLRIRMQAHSASALALAEWLERQPGIERVYYAGLPSHPQHELARRQQSGFGAVVSFDVKGGRDAAWRFIDATRMVSITTNLGDTKTTIAHPATTSHGRLSPEDRARAGIGDSLIRVAVGLEDLDDLKADMARGLAAL
modifications: N-terminal His tag
Question: Which Specific activity ([1]; substrate O-acetyl-L-homoserine) does the source give for B1 here?
Answer: <0.1 micromol/min/mg protein

Question: And the Specific activity ([1]; substrate O-acetyl-serine)?
Answer: <0.1 micromol/min/mg protein

Question: What about the Specific activity [1, 3] of the same molecule?
Answer: 139 micromol/min/mg protein

Question: What about the Km ([2]; Km for Na2S, determined with 15 mM O-succinyl-L-homoserine) of the same molecule?
Answer: 800 ± 200 µM

Question: And the Km ([2]; Km for O-succinyl-L-homoserine)?
Answer: 4400 ± 1000 µM

Question: What about the Vmax ([2]; substrate Na2S) of the same molecule?
Answer: 174.2 ± 39.8 (3) μmol/min/mg protein

Question: And the Vmax [2, 3]?
Answer: 180.4 ± 21.0 (3) μmol/min/mg protein
